The results in this text go back to patent US10829560B2, “Agents binding specifically to human cadherin-17, human cadherin-5, human cadherin-6 and human cadherin-20 RGD motif” (CONSEJO SUPERIOR DE INVESTIGACIONES CIENTÍFICAS, priority 2015, dated 2020).

For test [1], the system named is RKO and KM12SM cells. The experiment in a line: Soluble binding assay using CDH17 ectodomain as ligand (flow cytometry). The conditions noted are these: 10 μg/mL, FIG. 3E. The class given is cell-based, human. The method, then:
(§1) For soluble binding assays, cells were detached, incubated for 40 min with CDH17 ectodomain (10 μg/mL) at 37° C. in Ca2+, Mg2+ and Mn2+-free HBSS medium (Life Technologies), washed, incubated with anti-CDH17 antibodies at 4° C., washed again, incubated with secondary antibodies and analyzed by flow cytometry. For cell adhesions to CDH17 Domain 6 (2-10 μg/mL), adhesion assays in 96 wells microtiter plates were performed as above but in medium containing 1 mM MnCl2 and cells were washed gently, using a multi-channel pipette. For blocking assays, cells were preincubated with anti-β1 integrin (5 μg/mL) for 10 min before adhesion.

Another test has as its target T1, β1 integrin (Homo sapiens, UniProt P05556+P17301).
T1 construct: endogenous in cells; host or cells: RKO (A4); RKO, KM12SM, MDA-MB-468 and BLM (A9)
The experiment in a line: β1 integrin activation by CDH17 proteins or cadherin RGD peptides (HUTS21 flow cytometry). It counts as cell-based. Conditions: for β1 integrin in high-affinity conformation: RKO and KM12SM cells, FIG. 5B, 5C; for conformational change of β1-integrin into a high affinity conformation: 9 aa peptides, MDA-MB-468, BLM and RKO cells, FIG. 16; for induction of β1 integrin activation: RKO cells, 1 μg/mL peptide, FIG. 17. The method, then: Cells were detached with 2 mM EDTA in PBS, incubated at 4° C. with primary antibodies (10 μg/ml) for 30 min, washed and incubated with Alexa 488 labelled-secondary antibodies (anti-mouse IgG or anti-rabbit IgG, Dako). Fluorescence was analysed in a Coulter Epics XL cytofluorometer. Mean fluorescence intensities for the indicated antibodies are shown inside each panel. As a reference, irrelevant control antibodies (anti-cadherin-11, Santa Cruz Biotechnologies) gave a mean fluorescence intensity of 0.3.
RKO cells were detached with 2 mm EDTA in PBS, washed with PBS, resuspended in DMEM and incubated with a 9-amino acid peptide containing the RGD motif and the flanking sequences from cadherin 5 (SEQ ID NO: 37 for the RGD motif of domain 2 (CDH5A), and SEQ ID NO: 19 for the RGD motif of domain 3 (CDH5B)), cadherin 6 (SEQ ID NO: 38), cadherin 17 (VSLRGDTRG) (SEQ ID NO: 1), cadherin 20 (SEQ ID NO: 39), and cadherin 16 (SEQ ID NO: 31, RAIRGDTEG) for 25 min at 37° C. in presence of immune sera or control serum (diluted 1:50). After incubation, cells were subjected to flow cytometry assays using anti-β1 integrin in high-affinity conformation antibodies (Huts21, BD Pharmingen) and Alexa 488-coupled anti-mouse IgG antibodies (Abcam). Fluorescence was analysed in a Coulter Epics XL cytofluorometer. Mean fluorescence intensities for the indicated antibodies are shown inside each panel. As a reference, irrelevant control antibodies gave a mean fluorescence intensity of 0.3.
Alternatively, RKO cells were starved for 4 h, detached with EDTA 2 mM in PBS, and incubated in serum-free DMEM with 1 μg/mL of the following peptides: 9 aa peptides including the RGD motifs and the flanking sequences corresponding to the cadherin 17 (SEQ ID NO: 1) and the two motifs present in cadherin-5 (SEQ ID NO: 37 for the RGD motif of domain 2 (CDH5A), and SEQ ID: 19 for the RGD motif of domain 3 (CDH5B)), and 7 aa or 5 aa peptides with 2 aa or 1 aa respectively in each side of the RGD motif corresponding to the sequence of CDH17, SLRGDTR (SEQ ID NO: 32), and LRGDT (SEQ ID NO: 14), respectively. Simultaneously the cells were incubated to the indicated anti-CDH17 RGD monoclonal antibodies (10 μg/mL). After 40 min, cells were washed and subjected to flow cytometry assays using HUTS21 antibody, which binds to β1-integrin in high affinity conformation. Data were collected in a FACScalibur™ cytometer (BD) and represented as % of the β1-integrin activation induced by the 9 aa CDH17 RGD peptide (SEQ ID NO: 1).

Test [2] has as its system RKO and KM12SM cells. The experiment in a line: Cell adhesion to Matrigel after incubation with CDH17 DOM6 or Ecd. The conditions noted are these: FIG. 5D. The class given is cell-based, human. The method, then: For cell adhesion, 96-well plates were coated with Matrigel (4 μL/mL) (BD Biosciences) or type IV collagen ([…]) (Sigma-Aldrich) in coating buffer (0.1 M NaHCO3 pH 8.8) for 20 h and incubated with adhesion medium (0.4% BSA in serum-free DMEM) for 2 h to block unspecific binding. Cell were starved for 5 h without serum, labeled with BCECF-AM (Invitrogen), detached with 2 mM EDTA in PBS, resuspended in serum-free DMEM and 7×10^4 cells in 100 μL were added to plates in triplicate and then incubated for 25 min. Non-adherent cells were removed by three washes with DMEM. Bound cells were quantified using a fluorescence analyzer (POLARstar Galaxy).

The subject of test [3] is RKO and KM12SM cells. The experiment in a line: Cell adhesion to plates coated with CDH17 domain 6. The class given is cell-based, human. Conditions: for inhibition of cell adhesion to CDH17 domain 6 wt: FIG. 4B; for optimal dose for promoting cell adhesion to coated plates: FIG. 4A. As for the experimental part: as §1

T1 sequence (P05556 21-798): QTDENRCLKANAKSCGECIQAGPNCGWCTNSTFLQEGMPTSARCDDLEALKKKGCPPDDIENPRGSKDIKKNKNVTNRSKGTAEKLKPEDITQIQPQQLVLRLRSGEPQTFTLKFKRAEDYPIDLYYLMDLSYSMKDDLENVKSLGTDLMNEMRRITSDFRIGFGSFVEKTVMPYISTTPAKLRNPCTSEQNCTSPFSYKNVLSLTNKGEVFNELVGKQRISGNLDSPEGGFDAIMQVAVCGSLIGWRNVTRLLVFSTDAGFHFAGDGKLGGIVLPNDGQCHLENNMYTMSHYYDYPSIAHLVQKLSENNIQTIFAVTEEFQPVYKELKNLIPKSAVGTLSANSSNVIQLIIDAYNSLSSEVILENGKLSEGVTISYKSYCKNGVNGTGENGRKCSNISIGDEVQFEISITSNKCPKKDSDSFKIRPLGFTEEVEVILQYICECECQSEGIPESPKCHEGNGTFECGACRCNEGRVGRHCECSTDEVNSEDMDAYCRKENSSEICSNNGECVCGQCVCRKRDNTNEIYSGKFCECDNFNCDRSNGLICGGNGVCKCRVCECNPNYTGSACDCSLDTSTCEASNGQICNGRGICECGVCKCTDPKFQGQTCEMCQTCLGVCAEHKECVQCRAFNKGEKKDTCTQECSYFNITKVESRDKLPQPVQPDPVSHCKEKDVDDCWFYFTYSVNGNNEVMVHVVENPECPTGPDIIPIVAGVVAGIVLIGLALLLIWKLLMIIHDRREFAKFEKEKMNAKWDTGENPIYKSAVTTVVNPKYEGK
T1 sequence (P17301 30-1181): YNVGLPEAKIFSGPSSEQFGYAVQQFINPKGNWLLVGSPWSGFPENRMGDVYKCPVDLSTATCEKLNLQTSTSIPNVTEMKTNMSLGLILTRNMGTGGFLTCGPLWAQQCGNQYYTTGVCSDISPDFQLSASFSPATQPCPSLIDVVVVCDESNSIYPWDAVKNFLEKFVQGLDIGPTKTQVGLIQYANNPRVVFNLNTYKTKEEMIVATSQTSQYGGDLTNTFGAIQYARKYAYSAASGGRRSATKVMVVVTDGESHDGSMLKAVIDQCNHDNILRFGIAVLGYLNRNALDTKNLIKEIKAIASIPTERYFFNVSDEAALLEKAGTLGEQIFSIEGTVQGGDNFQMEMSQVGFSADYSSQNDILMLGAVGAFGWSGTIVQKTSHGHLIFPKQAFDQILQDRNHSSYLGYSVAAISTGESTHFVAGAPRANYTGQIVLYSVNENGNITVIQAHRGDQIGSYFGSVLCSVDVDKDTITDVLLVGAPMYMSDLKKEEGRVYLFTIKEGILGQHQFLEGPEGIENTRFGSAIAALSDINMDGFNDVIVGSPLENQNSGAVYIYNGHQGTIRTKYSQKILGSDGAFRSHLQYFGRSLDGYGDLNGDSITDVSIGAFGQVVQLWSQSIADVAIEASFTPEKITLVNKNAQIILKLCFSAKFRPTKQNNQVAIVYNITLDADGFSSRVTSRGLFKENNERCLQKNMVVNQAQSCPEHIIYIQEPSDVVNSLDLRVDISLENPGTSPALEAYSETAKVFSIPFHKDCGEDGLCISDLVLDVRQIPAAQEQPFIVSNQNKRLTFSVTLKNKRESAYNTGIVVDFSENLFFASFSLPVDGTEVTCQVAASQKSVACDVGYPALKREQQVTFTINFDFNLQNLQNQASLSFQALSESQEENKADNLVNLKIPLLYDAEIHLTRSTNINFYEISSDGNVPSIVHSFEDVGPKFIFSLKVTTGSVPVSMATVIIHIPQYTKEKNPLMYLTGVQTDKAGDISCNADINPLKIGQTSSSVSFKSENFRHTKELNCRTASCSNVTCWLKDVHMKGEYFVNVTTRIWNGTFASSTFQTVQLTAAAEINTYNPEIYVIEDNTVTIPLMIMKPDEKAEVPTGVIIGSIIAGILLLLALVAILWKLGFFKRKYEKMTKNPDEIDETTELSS

With “CDH17 ectodomain: purified recombinant CDH17 ectodomain (wild type) expressed in baculovirus”, in the test with RKO and KM12SM cells [1], the “binding to the cell surface” value is “bound to the cell surface”. For the same molecule, the “β1 integrin in high-affinity conformation” value in the test with β1 integrin is recorded as “enhanced the amount of β1 integrin in high-affinity conformation”. Moreover, in the test with RKO and KM12SM cells [2], the “cell adhesion to Matrigel after incubation” value (“cell adhesion to Matrigel” for short) is listed as “significant increase in cell adhesion to Matrigel”. Take “DMDRGDGSI (listed as Homo sapiens) [SEQ ID NO: 39]”: the “conformational change of β1-integrin into a high affinity conformation” value (“conformational change” below) with β1 integrin is listed as “induced the conformational change of β1-integrin into a high affinity conformation”.

With “DQDRGDGSL (listed as Homo sapiens) [SEQ ID NO: 38]”, the “conformational change” value with β1 integrin is “induced the conformational change of β1-integrin into a high affinity conformation”. Take “Ecd RAD: recombinant CDH17 ectodomain mutant lacking RGD motif (RAD)”: the “binding to the cell surface” value in the test with RKO and KM12SM cells [1] was “unable to bind to cells”. Also, in the test on RKO and KM12SM cells [2], the “cell adhesion to Matrigel” value is given as “significantly enhanced”.

On to LRGDT (listed as Homo sapiens), for which the “induction of β1 integrin activation” value with β1 integrin is “able to induce efficiently the integrin activation”. Consider “QGLRGDSGT (listed as Homo sapiens) [CDH5A]”, for which, in the test with β1 integrin, the “conformational change” value is given as “induced the conformational change of β1-integrin into a high affinity conformation” and the “induction of β1 integrin activation” value is listed as “able to activate beta1 integrin”. As for RADS [RADS peptide], the “inhibition of cell adhesion to CDH17 domain 6 wt” value with RKO and KM12SM cells [3] (both cell lines) was “did not inhibit cell adhesion”. As to “RAIRGDTEG (listed as Homo sapiens) [SEQ ID NO: 31, reference compound]”, in the test with β1 integrin, the “conformational change” value is reported as “not”.

Take “RAIRRGDTEG (listed as Homo sapiens) [CDH16 RGD, reference compound]”: in the test with β1 integrin, the “β1 integrin in high-affinity conformation” value is listed as “had no effect on β1 integrin activation”. RGDS [RGDS peptide]: the “concentration at which competition of cell adhesion to CDH17 domain 6 wt started” value with RKO and KM12SM cells [3] (both cell lines, 1 mM MnCl2, FIG. 4B) was determined as 1 µM. In the test on RKO and KM12SM cells [3] (both cell lines), the “inhibition of cell adhesion to CDH17 domain 6 wt” value is listed as “clear dose-dependent effect”. For the molecule “SILRGDYQD (listed as Homo sapiens) [CDH5 RGD peptide]”, in the test with β1 integrin, the “conformational change” value was “induced the conformational change of β1-integrin into a high affinity conformation” and the “induction of β1 integrin activation” value is “able to activate beta1 integrin”. As to SLRGDTR (listed as Homo sapiens), in the test with β1 integrin, the “induction of β1 integrin activation” value is listed as “able to induce efficiently the integrin activation”. Turning to “VSLRGDTRG (listed as Homo sapiens) [CDH17 peptide]”, in the test with β1 integrin, the “conformational change” value is “induced the conformational change of β1-integrin into a high affinity conformation” and the “β1 integrin in high-affinity conformation” value is recorded as “increased high-affinity conformation β1 integrin in both cell lines”.

B1: domain 6 wt: recombinant CDH17 domain 6 (571-665) expressed in E. coli (protein)
chain: FQAKVSEDVAIGTKVGNVTAKDPEGLDISYSLRGDTRGWLKIDHVTGEIFSVAPLDREAGSPYRVQVVATEVGGSSLSSVSEFHLILMDVNDNPP
On to B1, for which the “optimal dose for promoting cell adhesion to coated plates” value with RKO and KM12SM cells [3] (KM12SM) is 10 µg/mL; with RKO and KM12SM cells [3] (RKO), 2 µg/mL. Moreover, the “β1 integrin in high-affinity conformation” value with β1 integrin is listed as “enhanced the amount of β1 integrin in high-affinity conformation”. The “cell adhesion to Matrigel” value in the test with RKO and KM12SM cells [2] is reported as “significant increase in cell adhesion to Matrigel”; with RKO and KM12SM cells [2] (listed as CDH17 DOM6 wt), “significantly enhanced”.
